Our source for the stoichiometry N values is publication PMC11326647, “In vitro reconstitution reveals membrane clustering and RNA recruitment by the enteroviral AAA+ ATPase 2C” (PLOS Pathogens, 2023).

The target of the assay is His6-MBP-tagged poliovirus 2C([change]) (residues 1-11, 41-329) (poliovirus type 1 Mahoney) (UniProt P03300). The assay is described as follows: mass photometry.

One may read the stoichiometry N as a count of units in the complex or per binding partner. Substance “His6-MBP-tagged poliovirus 2C([change]) (residues 1-11, 41-329) (from UniProt P03300 1128-1456) (natural protein)” had a stoichiometry N of 2.
